Reference: article PMC8237704

Target: GluN1 NMDA receptor subunit, isoform GluN1-2a, with a fluorescent protein on the C-terminus (GluN1-GFP; GluN1-mCherry)
Test: FRET or BRET

**Q.** “GluN1 NMDA receptor subunit, isoform GluN1-2a, with a fluorescent protein on the C-terminus (GluN1-GFP; GluN1-mCherry)” was tested. Which FRET efficiency did it give?
**A.** The FRET efficiency was 5.8%.
